Measurements as given in PMC2453235, “Identification and Rational Redesign of Peptide Ligands to CRIP1, A Novel Biomarker for Cancers” (PLoS Computational Biology, 2008).
Where a SMILES comes first, the peptide text is derived from it. Bridges are numbered along the chain shown (N, C = ends). Where no end group is shown, it is not given here.

Tests used:
CRIP1 [1] = target: T1, CRIP1 (Homo sapiens, UniProt P50238); assay: Saturation binding of FITC-labeled peptides; settings: ΔΔG = RT ln K d,A1M − RT ln K d,A1, from apparent dissociation constants
T1 construct: enterokinase cleavage site and vector linker residues (N); made in house; host or cells: E. coli (pHAT10-CRIP1, IPTG induction)
T1 sequence (P50238 1-77): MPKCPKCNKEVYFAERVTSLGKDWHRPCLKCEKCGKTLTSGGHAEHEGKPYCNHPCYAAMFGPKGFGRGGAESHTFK
Description: We computationally redesigned A1 resulting in a peptide with a new sequence (denoted as A1M) predicted to bind to CRIP1 with higher affinity. To test this prediction, A1, B5 and A1M peptides were all synthesized and labeled with FITC for binding studies. Since the peptides encoded by the C7C phage library are at the N-terminus of the minor phage coat protein pIII followed by a short phage encoded spacer Gly-Gly-Gly-Ser, we included this 4-mer in the synthesized peptide. An additional C-terminal Lys was also included in order to enable fluorescent labeling of the peptide. […] We synthesized the cyclic form of the peptides, A1, B5 and A1M and determined their ability to bind CRIP1 using saturation binding experiments. […] To directly compare the affinity of the A1 and A1M peptides for CRIP1 protein, we performed a competitive binding assay and determined the IC50 for each of the peptides using FITC-A1M as the ligand. […]
The binding affinity of the peptides for CRIP1 protein was determined by saturation binding experiments,[55]. […] The fluorescence intensity in each well was determined on Infinite M200 Tecan Instrument (Tecan, NC) (Excitation wavelength: 494 nm, Emission wavelength: 530 nm). The apparent equilibrium dissociation constant, K d,apparent, was calculated by non-linear regression using GraphPad Prism (GraphPad Prism 4.0 Software, San Diego, CA). […]

CRIP1 [2] = target: T1, CRIP1; assay: Competitive binding assay against FITC-A1M; settings: A1M vs A1, competing for FITC-A1M binding, from IC50
Description: The binding affinity of the A1 and A1M peptides for CRIP1 protein was directly compared by a competitive binding experiment,[56]. Labeled A1M peptide (FITC-A1M) was competed with increasing concentrations of either unlabeled A1M peptides or A1 peptide and the IC50 for each peptide calculated.
Ninety-six well plates were coated with 150 µl of PBS buffer containing 100 µg/ml of CRIP1 and incubated overnight at 4°C. The wells were then washed 3 times with 50 mM Tris, 150 mM NaCl, pH 7.5 (TBS) containing 0.1% Tween-20 (TBST), and then each well filled completely with blocking buffer (TBS containing 0.5% BSA), incubated at least 1 hour at 4°C, and then rapidly washed 3 times with TBST. Following washing 150 µl of binding buffer containing FITC-A1M peptides of 10 µM and appropriate dilutions of unlabeled A1 and A1M peptides (ranging from 0 to 300 µM) were added to the CRIP1 containing wells and incubated for 1 hour at 37°C with rocking. After incubation, the plates were washed three times with binding buffer. The fluorescence intensity in each well was determined on Infinite M200 Tecan Instrument (Tecan, NC) (Excitation wavelength: 494 nm, Emission wavelength: 530 nm). Ki was calculated by non-linear regression with one binding site using GraphPad Prism (GraphPad Prism 4.0 Software, San Diego, CA). […]

[3] = target: T2, Cysteine-rich intestinal protein 1 (CRIP1), purified protein coated on plates for the peptide binding assays (human, UniProt P50238 1-77); assay: saturation binding of FITC-labelled peptide to protein-coated plates (fluorescence read-out); data not shown; 'similar assays' to the saturation binding of FITC-A1M on coated CRIP1; apparent Kd; settings: both partners purified
T2 construct: Cysteine-rich intestinal protein 1 (CRIP1), human; coding region of the cDNA, 77 amino acids; also called CRIP1 protein; source: bacteria (pHAT10-CRIP1, IPTG induced), purified (TALON CellThru resin)
T2 sequence (looked up): T1 sequence (P50238 1-77)

[4] = target: T2, Cysteine-rich intestinal protein 1 …; assay: saturation binding of FITC-labelled peptide to protein-coated plates (fluorescence read-out); CRIP1 coated on 96-well plates (100 µg/ml in PBS, overnight 4°C), blocked with 0.5% BSA in TBS; FITC peptide 50 nM to 100 µM, 1 h at 37°C; non-specific binding with 1 mM unlabeled peptide; apparent Kd by non-linear regression; settings: both partners purified

For `CC(C)C[C@@H]1NC(=O)[C@@H](N)CSSC[C@@H](C(=O)NCC(=O)NCC(=O)NCC(=O)N[C@@H](CO)C(=O)N[C@@H](CCCCN)C(N)=O)NC(=O)CNC(=O)[C@H](CCCCN)NC(=O)CNC(=O)CNC(=O)CNC(=O)[C@H](CC(=O)O)NC1=O` [A1M] (H-CLDGGGKGCGGGSK-NH2; disulfide 1-9; N-terminus assumed), the “experimental free energy change ΔΔG” value (CRIP1 [1]) was -1.6 kcal/mol and the “binding affinity relative to A1 (fold better)” value (CRIP1 [2]) was “approximately 27.5 times”.

B1: FITC-cyclic-A1 peptide (peptide)
peptide: H-CLKDNHRSCGGGSK-NH2
modifications: disulfide 1-9 (inferred); not fully specified (residue 14); printed as NH_2_-C-L-K-D-N-H-R-S-C-G-G-G-S-K-(FITC)-CONH_2_
notes: insert of phage clone A1 (C7C library) followed by the phage spacer Gly-Gly-Gly-Ser and a C-terminal Lys for labelling; also called FITC-A1; parent A1 peptide; source: synthetic peptide (Fmoc chemistry, HPLC purified, cyclised by oxidation in DMSO)
B1 gave a Kd [3] of 34.4 µM.

B2: FITC-cyclic-A1M peptide (peptide)
peptide: H-CLDGGGKGCGGGSK-NH2
modifications: disulfide 1-9 (inferred); not fully specified (residue 14); printed as NH_2_-C-L-D-G-G-G-K-G-C-G-G-G-S-K-(FITC)-CONH_2_
notes: also called FITC-A1M; modified A1; source: synthetic peptide (Fmoc chemistry, HPLC purified, cyclised by oxidation in DMSO)
In the case of B2, the Kd [4] is reported as 2.6 µM.

B3: FITC-cyclic-B5 peptide (peptide)
peptide: CYDPIWRTCGGGSK-NH2
modifications: disulfide 1-9 (inferred); not fully specified (residue 14); printed as C-Y-D-P-I-W-R-T-C-G-G-G-S-K-(FITC)-CONH_2_
notes: insert of phage clone B5 (C7C library) followed by the phage spacer Gly-Gly-Gly-Ser and a C-terminal Lys for labelling; also called FITC-B5; source: synthetic peptide (Fmoc chemistry, HPLC purified, cyclised by oxidation in DMSO)
For B3, the Kd [3] was 62.5 µM.
